Results from patent US20040082512A1.

Biological target: ZOT receptor of rabbit ileum
Assay: cell-based or functional assay

Work on “FZI/0, synthetic octapeptide Gly Gly Val Leu Val Gln Pro Gly” yielded a decrease of the effect of ZOT (6xHis-ZOT) on Rt of rabbit ileum after 20 min pre-treatment with FZI/0 of 75%, a decrease of the effect of zonulinh on Rt of rabbit ileum after 20 min pre-treatment with FZI/0 of 100% and a decrease of the effect of zonulini on Rt of rabbit ileum after 20 min pre-treatment with FZI/0 of 97%.
